Drawing on PMC2811000, this text covers AC fluorescence quenching, Kd and stoichiometry N for 2 substances.

Assay [1] has as its target acrylodan-labeled C-terminal catalytic kinase/phosphatase domain of PNKP (human). Briefly: other fluorescence titration.
The target in assay [2] is acrylodan-labeled FHA domain of PNKP (human) (UniProt Q96T60). Briefly: other fluorescence titration.

For orientation: Kd means the concentration at which binding is half-saturated. As usually defined, the stoichiometry N is a count of units in the complex or per binding partner.

Take “CK2-phosphorylated XRCC1 (from UniProt P18887 1-633) (natural protein)”: the AC fluorescence quenching in assay [1] stood at 8%. In assay [2], this substance yielded an AC fluorescence quenching of 50%, a dissociation constant (Kd) of 3.5 nM and a stoichiometry N of 1.08.
Take “non-phosphorylated XRCC1 (from UniProt P18887 1-633) (natural protein)”: in assay [1], the Kd was found to be 43 nM.
